Data on one substance can be found in patent US6190659A, “Bacterial plasmin binding protein and methods of use thereof” (priority 1996, dated 2001).

For this data set, the system named is O=C(O)C(CO)OP(=O)(O)O. In words: Enolase single enzyme assay: conversion of 2-phosphoglycerate to phosphoenolpyruvate, absorbance at 240 nm. The data set is classed as biochemical. The conditions noted are these: 7.7 mM KCl. The source says: FIG. 7: Michaelis-Menten plot depicting the change in absorbance at 240 nm/minute as a function of the concentration of 2-phosphoglycerate (mM) as catalyzed by the plasmin binding protein. The change in absorbance is due to the conversion of 2-phosphoglycerate to phosphoenolpyruvate. Conditions as described in Example 1.
FIG. 8: Double-reciprocal plot depicting the change in the reciprocal of the absorbance at 240 nm/minute as a function of the reciprocal of the concentration of 2-phosphoglycerate (mM) as catalyzed by the plasmin binding protein. The change in absorbance is due to the conversion of 2-phosphoglycerate to phosphoenolpyruvate. Conditions as described in Example 1.
The molecular weight of the plasmin binding protein for one particular embodiment of the present invention has been determined to be approximately 45 kDa by SDS-PAGE.
(b) For the kinetic studies, the single enzyme assay was used, involving only the conversion of 2-phosphoglycerate to phosphoenolpyruvate by enolase. This simpler reaction avoids possible interactions of the effectors with the other enzymes. The reaction was performed at 30° C. in 100 mM HEPES buffer, pH 7.0, containing 10 mM MgSO4, 3.2 mM EDTA and 7.7 mM KCl and varying concentrations of 2-phosphoglycerate (0.19-7.5 mM). The change in absorbance/min was monitored at 240 nm. […] Michaelis-Menten and Lineweaver-Burke plots were drawn from the data obtained using 5 μg of SEN and varying concentrations of 2-phosphoglycerate (FIGS. 7 and 8). […] A concentration-dependent increase in the enolase activity was also found for the intact, washed streptococci (FIG. 5).

Where [1] appears, read: other: 0.1 M Hepes pH 7.0, 10 mM MgSO4, 3.2 mM EDTA, 30° C.
[2] abbreviates: other: 30° C., 100 mM HEPES pH 7.0, 10 mM MgSO4, 3.2 mM EDTA, 5 μg SEN, 2-phosphoglycerate 0.19-7.5 mM, Michaelis-Menten and Lineweaver-Burke plots.

Consider “streptococcal surface enolase (SEN), 45 kDa plasmin binding protein purified from group A streptococci type M6 strain D471, N-terminal sequence SEQ ID NO: 1 (Streptococcus pyogenes MGAS10394)”, for which, under setting [1], the Km – broadly, the concentration of substrate that gives half-maximal velocity – worked out at 1500 µM and the Vmax is recorded as 270 μmol per minute-mg protein. Also, under setting [2], the Km was 1500 µM and the Vmax was 270 μmol per minute-mg protein.
